Results on 1 molecule are retold here after patent US8772452B2, “Calcium-binding photoprotein” (JNC Corporation, priority 2009, dated 2014).

Series [1] can be described thus: Bioluminescence emission spectrum on addition of CaCl2 (JASCO FP-6500, excitation source off). Type of series: physicochemical. Conditions: 0.1 ml of 50 mM CaCl2 added to 1 ml of 50 mM Tris-HCl (pH 7.6), 0.02 mg protein. On the procedure:
Bioluminescence emission spectra of the recombinant clytin-ESNA obtained in EXAMPLE 4, 5) were measured in a quartz cell having a 10 mm optical path under the given conditions (band width for emission/excitation: 20 nm, response: 0.5 sec, scan speed: 2000 nm/min) using a fluorescence spectrophotometer (JASCO FP-6500) with the excitation source turned off.

Series [2] in a line: Luminescence pattern triggered by addition of calcium (luminescence plate reader Centro LB960). The class given is biochemical. On the procedure: The luminescence activity of the recombinant clytin-ESNA of EXAMPLE 4 was measured as follows. After mixing 2-mercaptoethanol (1 μl) and substrate coelenterazine (1 μg/μl dissolved in ethanol) with 30 mM Tris-HCl (pH 7.6) containing 10 mM EDTA, the recombinant apoclytin-ESNA at each purification step was added to the mixture. The reaction was carried out on ice (4° C.) for 2 hours to regenerate recombinant clytin-ESNA. The luminescence reaction was triggered by adding a 50 mM calcium solution (100 μl/well) to 1 μl of this regenerated recombinant clytin-ESNA solution. The luminescence activity was measured for 10 seconds using a luminescence plate reader Centro LB960 (manufactured by Berthold) and expressed in terms of the maximum luminescence intensity (Imax).
In order to compare the luminescence properties between the recombinant clytin-ESNA (CLI-ESNA) obtained in EXAMPLE 5 and other holoproteins (aequorin (AQ)), clytin-I (CL-I), clytin-II (CL-II)) and obelin (Ob)), the luminescence patterns triggered by the addition of calcium were compared.
The luminescence patterns of CLI-ESNA, AQ, CL-I, CL-II and Ob were measured as follows. […] The luminescence reaction was initiated by adding 100 μl/well of a 50 mM calcium solution to this reconstitution solution. […]

B1: recombinant clytin-ESNA: Holoprotein (calcium-binding photoprotein) regenerated from recombinant apoclytin-ESNA (SEQ ID NO: 2/6) and coelenterazine (protein)
chain: VKLRPNFDNPKWVNRHKFMFNFLDINGDGKITLDEIVSKASDDICAKLGATPEQTKRHQDAVEAFFKKIGMDYGKEVEFPAFVDGWKELANYDLKLWSQNKKSLIRDWGDAVFDIFDKDGSGSISLDEWKAYGRISGICPSDEDAEKTFKHCDLDNSGKLDVDEMTRQHLGFWYTLDPTSDGLYGNFVP
modifications: coelenterazine
Consider B1, for which the “bioluminescence emission maximum wavelength” value in series [1] was 470 nm. Moreover, in series [2] (100 μl/well of 50 mM calcium solution, measured for 10 seconds, as compared to AQ, Cl-I, Ob), the “decay pattern of the luminescence patterns” value is “rapid decay pattern”. Also, the S/N ratio result in series [2] (compared with Cl-I, luminescence triggered by calcium) is on record as “higher S/N ratio than Cl-I”.
